In the supplement of paper PMC7877785:
± gives the uncertainty stated by the source.

Test: self-splicing fitness, log relative to wild type (ln ratio); higher = more splicing; Tetrahymena group I intron in knt gene, E. coli kanamycin selection, DiMSum; sequences stand for … in CUCUCU…GGAGGGAAAAGUUAUCAGGCAUGCACCUGGUAGCUAGUCUUUAAACCAAUAGAUUGCAUCGGUUUAAAAGGCAAGACCGUCAAAUUGCGGGAAAGGGGUCAACAGCCGUUCAGUACCAAGUCUCAGGGGAAACUUUGAGAUGGCCUUGCAAAGGGUAUGGUAAUAAGCUGACGGACAUGGUCCUAACCACGCAGCCAAGUCCUAAGUCAACAGAUCUUCUGUUGAUAUGGAUGCAGUUCACAGACUAAAUGUCGGUCGGGGAAGAUGUAUUCUUCUCAUAAGAUAUAGUCGGACCUCUCCUUAAUGGGAGCUAGCGGAUGAAGUGAUGCAACACUGGAGCCGCUGGGAACUAAUUUGUAUGCGAAAGUAUAUUGAUUAGUUUUGGAGUACUCGUGGUCG
How it was run: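 The eight P1ex-region nucleotides of an intron in the knt kanamycin-resistance gene on pET-22b(+) were all randomised and the library put into E. coli BL21(DE3). Six replicate transformations were grown overnight at 37°C or 30°C on LB agar with or without 25 μg/mL kanamycin, together with 100 μg/mL carbenicillin, 50 μM IPTG and 0.2% rhamnose. Colonies were pooled and amplicon-sequenced on an Illumina HiSeq 2500. Fitness from DiMSum is the error-weighted combination of wild-type-normalised replicate fold changes, kanamycin over none.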

Row | Sequence | self-splicing fitness (ln) (30 °C) | self-splicing fitness (ln) (37 °C)
1 | CGGAAGCAAUAUUACGUGCU | -3.85 ± 0.24 | -2.32 ± 0.23
2 | CGGAAGCAAUAUUACGUUGG | -1.89 ± 0.071 | -0.688 ± 0.077
3 | CGGCAGCAAUAUUACGAAUA |  | -2.07 ± 0.27
4 | CGGCAGCAAUAUUACGACCU | -0.341 ± 0.089 | -0.0632 ± 0.11
5 | CGGCAGCAAUAUUACGAUGU | -3.85 ± 0.31 | -3.14 ± 0.35
6 | CGGCAGCAAUAUUACGCAGU | -3.02 ± 0.17 | -2.07 ± 0.29
7 | CGGCAGCAAUAUUACGCGCA | -0.939 ± 0.097 | -0.247 ± 0.1
8 | CGGCAGCAAUAUUACGCGCC | -4.3 ± 0.43 | -3.04 ± 0.47
9 | CGGCAGCAAUAUUACGCGCG | -2.65 ± 0.22 | -1.54 ± 0.23
10 | CGGCAGCAAUAUUACGCUUG | -2.4 ± 0.15 | -2.31 ± 0.23
11 | CGGCAGCAAUAUUACGGCAA | -1.1 ± 0.083 | -1.27 ± 0.1
12 | CGGCAGCAAUAUUACGGCCG | -3.13 ± 0.39 | -1.42 ± 0.39
13 | CGGCAGCAAUAUUACGGUCA | -0.0453 ± 0.068 | -0.156 ± 0.083
14 | CGGCAGCAAUAUUACGGUUA | -0.164 ± 0.067 | -0.476 ± 0.059
15 | CGGCAGCAAUAUUACGUAAG | -0.428 ± 0.059 | 0.0199 ± 0.075
16 | CGGCAGCAAUAUUACGUAGG | -0.38 ± 0.075 | 0.0683 ± 0.097
17 | CGGCAGCAAUAUUACGUAUC | -3.9 ± 0.33 | -2.86 ± 0.27
18 | CGGCAGCAAUAUUACGUCAC | -3.84 ± 0.25 | -2.81 ± 0.29
19 | CGGCAGCAAUAUUACGUCCC | -0.557 ± 0.23 | 0.728 ± 0.37
20 | CGGCAGCAAUAUUACGUUCU | -0.518 ± 0.08 | -0.416 ± 0.11
21 | CGGGAGCAAUAUUACGAAAU |  | -1.65 ± 0.44
22 | CGGGAGCAAUAUUACGACAG | -1.7 ± 0.22 | -0.944 ± 0.38
23 | CGGGAGCAAUAUUACGACGC | -4.16 ± 0.46 | -3.31 ± 0.3
24 | CGGGAGCAAUAUUACGCAAC | -2.66 ± 0.24 | 
25 | CGGGAGCAAUAUUACGCAAU | -3.15 ± 0.39 | 
26 | CGGGAGCAAUAUUACGCACC | -3.47 ± 0.39 | 

Row | Sequence | self-splicing fitness (ln) (30 °C) | self-splicing fitness (ln) (37 °C)
27 | CGGGAGCAAUAUUACGCAGG | -3.04 ± 0.36 | -0.973 ± 0.27
28 | CGGGAGCAAUAUUACGCGCU | -3.25 ± 0.32 | 
29 | CGGGAGCAAUAUUACGGAGU | -3.92 ± 0.27 | -2.77 ± 0.2
30 | CGGGAGCAAUAUUACGGAUU | -3.51 ± 0.33 | -1.27 ± 0.28
31 | CGGGAGCAAUAUUACGGCAA | -3.64 ± 0.43 | 
32 | CGGGAGCAAUAUUACGGGGA | -2.04 ± 0.3 | -1.83 ± 0.23
33 | CGGGAGCAAUAUUACGUAAC | -1.35 ± 0.27 | 
34 | CGGGAGCAAUAUUACGUAAG | -1.46 ± 0.17 | -0.321 ± 0.18
35 | CGGGAGCAAUAUUACGUAGG | -1.91 ± 0.099 | -1.6 ± 0.17
36 | CGGGAGCAAUAUUACGUCGU | -3.3 ± 0.26 | -2.35 ± 0.3
37 | CGGGAGCAAUAUUACGUGAU |  | -0.773 ± 0.19
38 | CGGGAGCAAUAUUACGUUGA | -3.82 ± 0.39 | -2 ± 0.23
39 | CGGUAGCAAUAUUACGAAUU | -2.07 ± 0.24 | -2.34 ± 0.24
40 | CGGUAGCAAUAUUACGACUC | -1.01 ± 0.32 | 1.23 ± 0.43
41 | CGGUAGCAAUAUUACGAUCA | -0.493 ± 0.085 | 0.196 ± 0.12
42 | CGGUAGCAAUAUUACGAUGC | -3.7 ± 0.2 | -0.598 ± 0.13
43 | CGGUAGCAAUAUUACGAUUU | -2.17 ± 0.17 | -0.333 ± 0.15
44 | CGGUAGCAAUAUUACGCAAU |  | -3.67 ± 0.46
45 | CGGUAGCAAUAUUACGCAGC | -2.14 ± 0.24 | -1.72 ± 0.31
46 | CGGUAGCAAUAUUACGCCAC | -3.5 ± 0.39 | -2.03 ± 0.27
47 | CGGUAGCAAUAUUACGCCGA | -0.997 ± 0.24 | -1.5 ± 0.25
48 | CGGUAGCAAUAUUACGCGAA | -2.83 ± 0.25 | -1.28 ± 0.19
49 | CGGUAGCAAUAUUACGCUAA | -2.88 ± 0.28 | -1.85 ± 0.18
50 | CGGUAGCAAUAUUACGCUUU | -3.21 ± 0.27 | -0.482 ± 0.12
51 | CGGUAGCAAUAUUACGGAGA | -3.87 ± 0.32 | -2.72 ± 0.21
